Columns and labels:
[1] = substrate: N=C(N)NCCCCN; assay: Kinetic and inhibition studies, Chimera A2; type: biochemical, human; conditions: other: substrate = labelled compound, pH 9.5, 2 mM Mn2+
Method: (§1) Bacterial cultures were grown with shaking at 37 °C in Luria Broth media, in the presence of ampicillin (100 μg/mL). The wild-type and mutant human liver arginase cDNAs were directionally cloned into the pBluescript II KS(+) expression vector and then expressed in E. coli JM109, following induction with 1 mM isopropyl β-D-thiogalactopyranoside. The bacterial cells were disrupted by sonication on ice (5 × 30 s pulses), centrifuged for 20 min at 12,000× g, and the obtained supernatant was precipitated with ammonium sulfate (60% saturation). The pellet, collected by centrifugation at 12,000× g for 10 min, was re-suspended in buffer 5 mM Tris–HCl (pH 7.5) containing 2 mM MnCl2 and dialyzed for 6 h at 4 °C against the same buffer. After incubation with 5 mM MnCl2 for 10 min at 60 °C, the enzyme variants were purified as previously described [17]. The purity of the enzymes was evaluated by SDS–PAGE stained by Coomassie blue and immunodetection using an anti- rat arginase I antibody.
(§2) The single, double, triple, and chimera variants of human arginase type I were obtained by PCR, using the QuickChange site-directed mutagenesis kit (Stratagene, La Jolla, CA, USA); the plasmid pBluescript II KS(+) containing the human liver arginase cDNA was used as template. To obtain the chimeric species of human arginase type I, serial mutations were made in each loop to be modified, using as template DNA the wild-type arginase gene or the previous done mutation, subcloned in the plasmid pBluescript II KS (+).
(§3) All assays were initiated by adding the enzyme to a previously equilibrated buffer with the substrate in solution (the concentrations of used substrates were between 0.2–3 fold the Km). Urea was determined by a colorimetric method with α-isonitrosopropiophenone [38]. The protein concentrations were determined by the Bradford’s method, with bovine serum albumin as standard. Initial velocity and enzymatic inhibition experiments were performed in duplicate and repeated three times. […]

[2] = substrate: N=C(N)NCCCCN; assay: Kinetic and inhibition studies, S137C-N139D mutant; type: biochemical, human; conditions: other: substrate = labelled compound, pH 9.5, 2 mM Mn2+
Method: (§4) All assays were initiated by adding the enzyme to a previously equilibrated buffer with the substrate in solution (the concentrations of used substrates were between 0.2–3 fold the Km). Urea was determined by a colorimetric method with α-isonitrosopropiophenone [38]. […] Initial velocity and enzymatic inhibition experiments were performed in duplicate and repeated three times. The inhibitory patterns were initially determined by double reciprocal plots and re-plots of intercepts and slopes versus inhibitor concentrations. […] Velocities are expressed as μmol of urea/10 min.

[3] = substrate: N=C(N)NCCCCN; assay: Kinetic and inhibition studies, triple mutant; type: biochemical, human; conditions: other: substrate = labelled compound, pH 9.5, 2 mM Mn2+
Method: as §4

[4] = substrate: N=C(N)NCCCCN; assay: Kinetic and inhibition studies, S137C mutant; type: biochemical, human; conditions: other: substrate = labelled compound, pH 9.5, 2 mM Mn2+
Method: as §1, §2, §3

[5] = substrate: N=C(N)NCCCCN; assay: Kinetic and inhibition studies, N130D-N139D mutant; type: biochemical, human; conditions: other: substrate = labelled compound, pH 9.5, 2 mM Mn2+
Method: as §4

[6] = substrate: N=C(N)NCCCCN; assay: Kinetic and inhibition studies, N139D mutant; type: biochemical, human; conditions: other: substrate = labelled compound, pH 9.5, 2 mM Mn2+
Method: as §1, §2, §3

[7] = substrate: N=C(N)NCCCCN; assay: Kinetic and inhibition studies, N130D mutant; type: biochemical, human; conditions: other: substrate = labelled compound, pH 9.5, 2 mM Mn2+
Method: as §1, §2, §3

[8] = substrate: N=C(N)NCCCCN; assay: Kinetic and inhibition studies, N130D-S137C mutant; type: biochemical, human; conditions: other: substrate = labelled compound, pH 9.5, 2 mM Mn2+
Method: as §1, §2, §3

[9] = substrate: N=C(N)NCCCCN; assay: Kinetic studies, E. coli agmatinase; type: biochemical; conditions: other: substrate = labelled compound; n/a = no activity with the substrate; pH 9.5
Method: All assays were initiated by adding the enzyme to a previously equilibrated buffer with the substrate in solution (the concentrations of used substrates were between 0.2–3 fold the Km). Urea was determined by a colorimetric method with α-isonitrosopropiophenone. The protein concentrations were determined by the Bradford’s method, with bovine serum albumin as standard. Initial velocity and enzymatic inhibition experiments were performed in duplicate and repeated three times. The inhibitory patterns were initially determined by double reciprocal plots and re-plots of intercepts and slopes versus inhibitor concentrations. […] Velocities are expressed as μmol of urea/10 min.

B1: Chimera A2 (I129T/N130Y/T131A+∆ P132-T134) of human arginase type I (Homo sapiens; DEL129-131/I129T/L133Y/N130Y/P132T/T134A) (protein)
chain: MSAKSRTIGIIGAPFSKGQPRGGVEEGPTVLRKAGLLEKLKEQECDVKDYGDLPFADIPNDSPFQIVKNPRSVGKASEQLAGKVAEVKKNGRISLVLGGDHSLAIGSISGHARVHPDLGVIWVDAHTDTYATTSGNLHGQPVSFLLKELKGKIPDVPGFSWVTPCISAKDIVYIGLRDVDPGEHYILKTLGIKYFSMTEVDRLGIGKVMEETLSYLLGRKKRPIHLSFDVDGLDPSFTPATGTPVVGGLTYREGLYITEEIYKTGLLSGLDIMEVNPSLGKTPEEVTRTVNTAVAITLACFGLAREGNHKPIDYLNPPK
notes: made in house; host or cells: E. coli JM109
Question: Which results are given for B1?
Answer: Km [1]: 6 ± 1 mM; kcat [1]: 1.1 ± 0.2 s⁻¹; kcat/Km [1]: 180 M⁻¹ s⁻¹

B2: human arginase type I S137C-N139D (Homo sapiens; N139D/S137C) (protein)
chain: MSAKSRTIGIIGAPFSKGQPRGGVEEGPTVLRKAGLLEKLKEQECDVKDYGDLPFADIPNDSPFQIVKNPRSVGKASEQLAGKVAEVKKNGRISLVLGGDHSLAIGSISGHARVHPDLGVIWVDAHTDINTPLTTTCGDLHGQPVSFLLKELKGKIPDVPGFSWVTPCISAKDIVYIGLRDVDPGEHYILKTLGIKYFSMTEVDRLGIGKVMEETLSYLLGRKKRPIHLSFDVDGLDPSFTPATGTPVVGGLTYREGLYITEEIYKTGLLSGLDIMEVNPSLGKTPEEVTRTVNTAVAITLACFGLAREGNHKPIDYLNPPK
notes: as for B1
Question: Which Km [2] does the source give for B2 here?
Answer: 0.9 mM

Question: What about the kcat [2] of the same protein?
Answer: 1.1 s⁻¹

Question: And the kcat/Km [2]?
Answer: 1200 M⁻¹ s⁻¹

B3: human arginase type I N130D-S137C-N139D (Homo sapiens; N130D/N139D/S137C) (protein)
chain: MSAKSRTIGIIGAPFSKGQPRGGVEEGPTVLRKAGLLEKLKEQECDVKDYGDLPFADIPNDSPFQIVKNPRSVGKASEQLAGKVAEVKKNGRISLVLGGDHSLAIGSISGHARVHPDLGVIWVDAHTDIDTPLTTTCGDLHGQPVSFLLKELKGKIPDVPGFSWVTPCISAKDIVYIGLRDVDPGEHYILKTLGIKYFSMTEVDRLGIGKVMEETLSYLLGRKKRPIHLSFDVDGLDPSFTPATGTPVVGGLTYREGLYITEEIYKTGLLSGLDIMEVNPSLGKTPEEVTRTVNTAVAITLACFGLAREGNHKPIDYLNPPK
notes: as for B1
Question: Which results are given for B3?
Answer: Km [3]: 1.6 mM; kcat [3]: 0.9 s⁻¹; kcat/Km [3]: 560 M⁻¹ s⁻¹

B4: human arginase type I S137C (Homo sapiens; S137C) (protein)
chain: MSAKSRTIGIIGAPFSKGQPRGGVEEGPTVLRKAGLLEKLKEQECDVKDYGDLPFADIPNDSPFQIVKNPRSVGKASEQLAGKVAEVKKNGRISLVLGGDHSLAIGSISGHARVHPDLGVIWVDAHTDINTPLTTTCGNLHGQPVSFLLKELKGKIPDVPGFSWVTPCISAKDIVYIGLRDVDPGEHYILKTLGIKYFSMTEVDRLGIGKVMEETLSYLLGRKKRPIHLSFDVDGLDPSFTPATGTPVVGGLTYREGLYITEEIYKTGLLSGLDIMEVNPSLGKTPEEVTRTVNTAVAITLACFGLAREGNHKPIDYLNPPK
notes: as for B1
Question: Which Km [4] does the source give for B4 here?
Answer: 7.5 mM

Question: And the kcat [4]?
Answer: 1.8 s⁻¹

Question: What about the kcat/Km [4] of the same protein?
Answer: 240 M⁻¹ s⁻¹

B5: human arginase type I N130D-N139D (Homo sapiens; N130D/N139D) (protein)
chain: MSAKSRTIGIIGAPFSKGQPRGGVEEGPTVLRKAGLLEKLKEQECDVKDYGDLPFADIPNDSPFQIVKNPRSVGKASEQLAGKVAEVKKNGRISLVLGGDHSLAIGSISGHARVHPDLGVIWVDAHTDIDTPLTTTSGDLHGQPVSFLLKELKGKIPDVPGFSWVTPCISAKDIVYIGLRDVDPGEHYILKTLGIKYFSMTEVDRLGIGKVMEETLSYLLGRKKRPIHLSFDVDGLDPSFTPATGTPVVGGLTYREGLYITEEIYKTGLLSGLDIMEVNPSLGKTPEEVTRTVNTAVAITLACFGLAREGNHKPIDYLNPPK
notes: as for B1
Question: What does the source list for B5?
Answer: Km [5]: 1.1 mM; kcat [5]: 1.6 s⁻¹; kcat/Km [5]: 1400 M⁻¹ s⁻¹

B6: human arginase type I N139D (Homo sapiens; N139D) (protein)
chain: MSAKSRTIGIIGAPFSKGQPRGGVEEGPTVLRKAGLLEKLKEQECDVKDYGDLPFADIPNDSPFQIVKNPRSVGKASEQLAGKVAEVKKNGRISLVLGGDHSLAIGSISGHARVHPDLGVIWVDAHTDINTPLTTTSGDLHGQPVSFLLKELKGKIPDVPGFSWVTPCISAKDIVYIGLRDVDPGEHYILKTLGIKYFSMTEVDRLGIGKVMEETLSYLLGRKKRPIHLSFDVDGLDPSFTPATGTPVVGGLTYREGLYITEEIYKTGLLSGLDIMEVNPSLGKTPEEVTRTVNTAVAITLACFGLAREGNHKPIDYLNPPK
notes: as for B1
Question: For B6, which Km [6] is on record?
Answer: 5.3 mM

Question: What about the kcat [6] of the same protein?
Answer: 1.3 s⁻¹

Question: And the kcat/Km [6]?
Answer: 250 M⁻¹ s⁻¹

B7: human arginase type I N130D (Homo sapiens; N130D) (protein)
chain: MSAKSRTIGIIGAPFSKGQPRGGVEEGPTVLRKAGLLEKLKEQECDVKDYGDLPFADIPNDSPFQIVKNPRSVGKASEQLAGKVAEVKKNGRISLVLGGDHSLAIGSISGHARVHPDLGVIWVDAHTDIDTPLTTTSGNLHGQPVSFLLKELKGKIPDVPGFSWVTPCISAKDIVYIGLRDVDPGEHYILKTLGIKYFSMTEVDRLGIGKVMEETLSYLLGRKKRPIHLSFDVDGLDPSFTPATGTPVVGGLTYREGLYITEEIYKTGLLSGLDIMEVNPSLGKTPEEVTRTVNTAVAITLACFGLAREGNHKPIDYLNPPK
notes: as for B1
Question: Which results are given for B7?
Answer: Km [7]: 1.4 mM; kcat [7]: 3 s⁻¹; kcat/Km [7]: 2100 M⁻¹ s⁻¹

B8: human arginase type I N130D-S137C (Homo sapiens; N130D/S137C) (protein)
chain: MSAKSRTIGIIGAPFSKGQPRGGVEEGPTVLRKAGLLEKLKEQECDVKDYGDLPFADIPNDSPFQIVKNPRSVGKASEQLAGKVAEVKKNGRISLVLGGDHSLAIGSISGHARVHPDLGVIWVDAHTDIDTPLTTTCGNLHGQPVSFLLKELKGKIPDVPGFSWVTPCISAKDIVYIGLRDVDPGEHYILKTLGIKYFSMTEVDRLGIGKVMEETLSYLLGRKKRPIHLSFDVDGLDPSFTPATGTPVVGGLTYREGLYITEEIYKTGLLSGLDIMEVNPSLGKTPEEVTRTVNTAVAITLACFGLAREGNHKPIDYLNPPK
notes: as for B1
Question: What does the source list for B8?
Answer: Km [8]: 1.7 mM; kcat [8]: 2.3 s⁻¹; kcat/Km [8]: 1300 M⁻¹ s⁻¹

B9: E. coli agmatinase (Escherichia coli K-12) (protein)
chain: MSTLGHQYDNSLVSNAFGFLRLPMNFQPYDSDADWVITGVPFDMATSGRAGGRHGPAAIRQVSTNLAWEHNRFPWNFDMRERLNVVDCGDLVYAFGDAREMSEKLQAHAEKLLAAGKRMLSFGGDHFVTLPLLRAHAKHFGKMALVHFDAHTDTYANGCEFDHGTMFYTAPKEGLIDPNHSVQIGIRTEFDKDNGFTVLDACQVNDRSVDDVIAQVKQIVGDMPVYLTFDIDCLDPAFAPGTGTPVIGGLTSDRAIKLVRGLKDLNIVGMDVVEVAPAYDQSEITALAAATLALEMLYIQAAKKGE
Question: B9 was tested. Which Km [9] did it give?
Answer: 1.1 mM

Question: What about the kcat [9] of the same protein?
Answer: 120 s⁻¹

Question: What about the kcat/Km [9] of the same protein?
Answer: 110000 M⁻¹ s⁻¹
